Four molecules from US20210155676A1 (published 2021) can be followed below.

The EC50 is the concentration needed to bring the measured effect to its halfway point. The low end stands for a more potent agent, the high end for a less potent agent.

Positions count from the first letter of the chain named.

This test deals with gp120. Put plainly: ELISA; geometric mean over gp120 from 7 HIV strains. (An ELISA detects its analyte on a solid surface through an enzyme-linked reagent.)

B1: PGT121.42 (antibody, V domains shown)
VH: QMQLQESGPGLVKPSETLSLTCSVSGASISDSYWSWIRRSPGKGLEWIGYVHKSGDTNYNPSLKSRVHLSLDTSKNQVSLSLSSVTAADSGKYYCARTLHGRRIYGIVAFNEWFTYFYMDVWGKGTQVTVSS
VL: SDISVAPGETARISCGEKSLGSRAVQWYQHRAGQAPSLIIYNNQDRPSGIPERFSGSPDSPFGTTATLTITSVEAGDEADYYCHIWDSRVPTKWVFGGGTTLTVLG
Consider B1, for which the EC50 was determined as 1.57 nM.

B2: PGT121.65 (antibody, V domains shown)
VH: B1 VH with M2L, S32A, S83T, S84G, T98A, K124T
VL: B1 VL with P61R, F62P, T101K
The molecule B2 came in with an EC50 of 2.14 nM.

B3: PGT121.61 (antibody)
heavy: QMQLQESGPGLVKPSETLSLTCSVSGASISDSYWSWIRRSPGKGLEWIGYVHKSGDTNYNPSLKSRVHLSLDTSKNQVSLSLTGVTAADSGKYYCARTLHGRRIYGIVAFNEWFTYFYMDVWGTGTQVTVSSASTKGPSVFPLAPSSKSTSGGTAALGCLVKDYFPEPVTVSWNSGALTSGVHTFPAVLQSSGLYSLSSVVTVPSSSLGTQTYICNVNHKPSNTKVDKKVEPKSCDKTHTCPPCPAPELLAGPDVFLFPPKPKDTLMISRTPEVTCVVVDVSHEDPEVKFNWYVDGVEVHNAKTKPREEQYNSTYRVVSVLTVLHQDWLNGKEYKCKVSNKALPLPEEKTISKAKGQPREPQVYTLPPSREEMTKNQVSLTCLVKGFYPSDIAVEWESNGQPENNYKTTPPVLDSDGSFFLYSKLTVDKSRWQQGNVFSCSVLHEALHSHYTQKSLSLSPGK
light: SDISVAPGETARISCGEKSLGSRAVQWYQHRAGQAPSLIIYNNQDRPSGIPERFSGSPDSRPGTTATLTITSVEAGDEADYYCHIWDSRVPTKWVFGGGTKLTVLGQPKAAPSVTLFPPSSEELQANKATLVCLISDFYPGAVTVAWKADSSPVKAGVETTTPSKQSNNKYAASSYLSLTPEQWKSHRSYSCQVTHEGSTVEKTVAPTECS
For B3, the EC50 came out at 1.65 nM.

B4: PGT121.60 (antibody)
heavy: B3 heavy
light: not shown
The molecule B4 came in with an EC50 of 1.79 nM.
